B1: FRA1 C-terminal tail fragment (amino acids 616-1035), C-terminal 6xHis fusion (domain or fragment, Arabidopsis thaliana, UniProt Q8GS71 616-1035, looked up)
chain: ARRLQDEIQSIKAQKVQLQHRMKQEAEQFRQWKASREKELLQLRKEGRKSEYERHKLQALNQRQKMVLQRKTEEAAMATKRLKELLEARKSSPREHSAGTNGFGTNGQTNEKSLQRWLDHELEVMVNVHEVRHEYEKQSHVRAALAEELAVLRQVDEFAVKGLSPPRGKNGFARASSLSPNARMARISSLENMLVISSNSLVAMASQLSEAEERERAFTNRGRWNQLRSMGEAKNLLQYMFNSLAETRCQLWEKDVEIKEMKDQFKEIVGLLRQSELRRKEAEKELKLREQAIATSLGTPPSSVKHVAEDLSTPSPMTVPAQKQLKFTPGIANGKVRGPAAFLDTNKKMVPMGQVSMRKLSAVGKQGGRLWRWKRSHHQWIVQFKWKWQKPWRLSEWIRTSDETLLKSKPRLKALPNKIM

Columns and labels:
[1] = target: T1, MBP-tagged CKL6 (casein kinase1-like 6) (Arabidopsis thaliana, UniProt Q8LPJ1 1-479); assay: pull-down
T1 sequence (looked up): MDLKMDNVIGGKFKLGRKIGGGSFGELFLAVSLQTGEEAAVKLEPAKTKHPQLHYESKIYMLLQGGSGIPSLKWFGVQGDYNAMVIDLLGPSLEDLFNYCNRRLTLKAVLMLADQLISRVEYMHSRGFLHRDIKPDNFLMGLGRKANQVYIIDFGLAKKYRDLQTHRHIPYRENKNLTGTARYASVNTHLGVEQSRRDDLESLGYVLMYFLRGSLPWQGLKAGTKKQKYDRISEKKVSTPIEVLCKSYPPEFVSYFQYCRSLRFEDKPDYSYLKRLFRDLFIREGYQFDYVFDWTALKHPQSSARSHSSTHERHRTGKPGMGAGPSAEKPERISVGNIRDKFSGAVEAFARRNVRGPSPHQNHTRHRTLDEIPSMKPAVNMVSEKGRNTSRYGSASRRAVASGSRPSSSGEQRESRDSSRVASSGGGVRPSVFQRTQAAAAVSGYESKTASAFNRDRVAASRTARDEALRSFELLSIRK

[2] = target: B1; assay: pull-down

Row | Binder | binding result [1] | binding result [2]
1 | B1 | binds | –
2 | MBP-tagged CKL3 (casein kinase1-like 3) (enzyme, Arabidopsis thaliana, UniProt Q93Z18 1-415, looked up) MERIIGGKYKLGRKIGGGSFGEIFLATHVDTFEIVAVKIENSKTKHPQLLYEAKLYRILEGGSGIPRIKWFGVDGTENALVMDLLGPSLEDLFVYCGRKFSPKTVLMLADQMLTRIEFVHSKGYLHRDIKPDNFLMGLGRKANQVYLIDFGLAKRYRDANTNRHIPYRENKNLTGTARYASCNTHLGIEQSRRDDLESLGYVLLYFLRGSLPWQGLKAVDKKQKYDKICEKKISTPIEVLCKNHPVEFASYFHYCHTLTFDQRPDYGFLKRLFRDLFSREGYEFDYIFDWTIIKYQQAQKSRNQSQAVPGSSNPRAMPVDTSNHRGGPNISYEAEASERVRSANAIGPSPQINNNTAAGRTPGFDHPVHKNMNMPSTSLSPAGTSKRNVGPETSNSGYGSGNRTGWTSSFMSPEK | – | binds

Reference: publication doi:10.1101/760389 (bioRxiv, 2019)
